We go through 1 protein from paper doi:10.1101/2020.10.26.352583 (bioRxiv, 2020).

The data set deals with the molecule itself. In words: ITC. A general note: In ITC the heat of successive injections is recorded.

B1: HDP1 DNA-binding domain (HDP1-DBD), aa2991-3078 (domain or fragment, P. falciparum, UniProt A0A2I0C2C6 2991-3078, looked up)
chain: SEVQVSNINTPSSYNISARRRRRIGNNGPPSAEELNRLLNIQHLTIPEIATIYGVHRTTIARWCNIRNITSNSMNNSPGKRRKNEDNK
For the protein B1, the binding result is reported as “binds”.
